This data set deals with the molecule itself. Briefly: crystal structure.

B1: Helicobacter pylori high temperature requirement A protein (HpHtrA) (enzyme)
chain: GNIQIQSMPKVKERVSVPSKDDTIYSYHDSIKDSIKAVVNISTEKKIKNNFIGGGVFNDPFFQQFFGDLGGMIPKERMERALGSGVIISKDGYIVTNNHVIDGADKIKVTIPGSNKEYSATLVGTDSESDLAVIRITKDNLPTIKFSDSNDISVGDLVFAIGNPFGVGESVTQGIVSALNKSGIGINSYENFIQTDASINPGNSGGALIDSRGGLVGINTAIISKTGGNHGIGFAIPSNMVKDTVTQLIKTGKIERGYLGVGLQDLSGDLQNSYDNKEGAVVISVEKDSPAKKAGILVWDLITEVNGKKVKNTNELRNLIGSMLPNQRVTLKVIRDKKERAFTLTLAERKNPNKKETISAQNGAQGQLNGLQVEDLTQETKRSMRLSDDVQGVLVSQVNENSPAEQAGFRQGNIITKIEEVEVKSVADFNHALEKYKGKPKRFLVLDLNQGYRIILVK
Usually stoichiometry N stands for the number of molecules, sites or subunits per partner or assembly. For the protein B1, the “stoichiometry N” value was found to be 6.

The values above are taken from PMC4724879 (Chemical science (Royal Society of Chemistry : 2010), 2014).
